According to publication PMC2661844, “HD-PTP Is a Catalytically Inactive Tyrosine Phosphatase Due to a Conserved Divergence in Its Phosphatase Domain” (PLoS ONE, 2009):

B1: Flag-HD-PTP catalytic domain (CD) (Homo sapiens; S1394A) (protein)
chain: ERLRQLQQELEAFRGQLGDVGALDTVWRELQDAQEHDARGRSIAIARCYSLKNRHQDVMPYDSNRVVLRSGKDDYINASCVEGLSPYCPPLVATQAPLPGTAADFWLMVHEQKVSVIVMLVSEAEMEKQKVARYFPTERGQPMVHGALSLALSSVRSTETHVERVLSLQFRDQSLKRSLVHLHFPTWPELGLPDSPSNLLRFIQEVHAHYLHQRPLHTPIIVHCSAGVGRTGAFALLYAAVQEVEAGNGIPELPQLVRRMRQQRKHMLQEKLHLRFCYEAVVRHVEQVLQRH
notes: PTP catalytic domain, residues 1169-1460, 2xFlag tag kept, expressed in HEK 293T, anti-Flag purified
B2: Flag-HD-PTP full-length (HD) (Homo sapiens; S1394A) (protein)
chain: MEAVPRMPMIWLDLKEAGDFHFQPAVKKFVLKNYGENPEAYNEELKKLELLRQNAVRVPRDFEGCSVLRKYLGQLHYLQSRVPMGSGQEAAVPVTWTEIFSGKSVAHEDIKYEQACILYNLGALHSMLGAMDKRVSEEGMKVSCTHFQCAAGAFAYLREHFPQAYSVDMSRQILTLNVNLMLGQAQECLLEKSMLDNRKSFLVARISAQVVDYYKEACRALENPDTASLLGRIQKDWKKLVQMKIYYFAAVAHLHMGKQAEEQQKFGERVAYFQSALDKLNEAIKLAKGQPDTVQDALRFTMDVIGGKYNSAKKDNDFIYHEAVPALDTLQPVKGAPLVKPLPVNPTDPAVTGPDIFAKLVPMAAHEASSLYSEEKAKLLREMMAKIEDKNEVLDQFMDSMQLDPETVDNLDAYSHIPPQLMEKCAALSVRPDTVRNLVQSMQVLSGVFTDVEASLKDIRDLLEEDELLEQKFQEAVGQAGAISITSKAELAEVRREWAKYMEVHEKASFTNSELHRAMNLHVGNLRLLSGPLDQVRAALPTPALSPEDKAVLQNLKRILAKVQEMRDQRVSLEQQLRELIQKDDITASLVTTDHSEMKKLFEEQLKKYDQLKVYLEQNLAAQDRVLCALTEANVQYAAVRRVLSDLDQKWNSTLQTLVASYEAYEDLMKKSQEGRDFYADLESKVAALLERTQSTCQAREAARQQLLDRELKKKPPPRPTAPKPLLPRREESEAVEAGDPPEELRSLPPDMVAGPRLPDTFLGSATPLHFPPSPFPSSTGPGPHYLSGPLPPGTYSGPTQLIQPRAPGPHAMPVAPGPALYPAPAYTPELGLVPRSSPQHGVVSSPYVGVGPAPPVAGLPSAPPPQFSGPELAMAVRPATTTVDSIQAPIPSHTAPRPNPTPAPPPPCFPVPPPQPLPTPYTYPAGAKQPIPAQHHFSSGIPAGFPAPRIGPQPQPHPQPHPSQAFGPQPPQQPLPLQHPHLFPPQAPGLLPPQSPYPYAPQPGVLGQPPPPLHTQLYPGPAQDPLPAHSGALPFPSPGPPQPPHPPLAYGPAPSTRPMGPQAAPLTIRGPSSAGQSTPSPHLVPSPAPSPGPGPVPPRPPAAEPPPCLRRGAAAADLLSSSPESQHGGTQSPGGGQPLLQPTKVDAAEGRRPQALRLIERDPYEHPERLRQLQQELEAFRGQLGDVGALDTVWRELQDAQEHDARGRSIAIARCYSLKNRHQDVMPYDSNRVVLRSGKDDYINASCVEGLSPYCPPLVATQAPLPGTAADFWLMVHEQKVSVIVMLVSEAEMEKQKVARYFPTERGQPMVHGALSLALSSVRSTETHVERVLSLQFRDQSLKRSLVHLHFPTWPELGLPDSPSNLLRFIQEVHAHYLHQRPLHTPIIVHCSAGVGRTGAFALLYAAVQEVEAGNGIPELPQLVRRMRQQRKHMLQEKLHLRFCYEAVVRHVEQVLQRHGVPPPCKPLASASISQKNHLPQDSQDLVLGGDVPISSIQATIAKLSIRPPGGLESPVASLPGPAEPPGLPPASLPESTPIPSSSPPPLSSPLPEAPQPKEEPPVPEAPSSGPPSSSLELLASLTPEAFSLDSSLRGKQRMSKHNFLQAHNGQGLRATRPSDDPLSLLDPLWTLNKT
notes: full length, residues 1-1636, 2xFlag tag kept, expressed in HEK 293T, anti-Flag purified

Experiments:
[1] = substrate: Cc1cc(=O)oc2c(F)c(OP(=O)(O)O)c(F)cc12; assay: fluorogenic DiFMUP hydrolysis, Michaelis-Menten fit; type: biochemical, Homo sapiens; settings: 50 mM Hepes, 3 mM DTT, 0.1 mg/ml BSA, pH 6.5, 37 °C, DiFMUP 0-300 µM, wild type inactive
Description: fluorogenic DiFMUP hydrolysis, Michaelis-Menten fit on Flag-HD-PTP catalytic domain (CD)

[2] = substrate: Cc1cc(=O)oc2c(F)c(OP(=O)(O)O)c(F)cc12; assay: as above; type: biochemical, Homo sapiens; settings: 50 mM Hepes, 3 mM DTT, 0.1 mg/ml BSA, pH 6.5, 37 °C, DiFMUP 0-300 µM, wild type inactive; remark: listed apart in the source
Description: fluorogenic DiFMUP hydrolysis, Michaelis-Menten fit on Flag-HD-PTP full-length (HD)

Protein	Km [1]	kcat [1]	Km [2]	kcat [2]	kcat/Km [2]
B1	18 µM	0.1 s⁻¹			
B2			28 µM	0.2 s⁻¹	6000 M⁻¹ s⁻¹
